Results taken from patent publication US20220220218A1 (JIANGSU HENGRUI MEDICINE, published 2022).
Changes are numbered by the printed parent chain.

B1: Hab110.21 (antibody, human IgG1, kappa, V domains shown)
VH: EVQLVQSGAEVKKPGASVKVSCKASGYTFTSYTMHWVRQAPGQRLEWMGYINPNSFYIEYNQKFKDRVTITRDTSASTAYMELSSLRSEDTAVYYCARGDYDLFYDMDNWGQGTTVTVSS
VL: DIQMTQSPSSLSASVGDRVTITCRASQDIGNSLNWLQQKPGKAIKRLIYATFRLDSGVPSRFSGSRSGTEYTLTISSLQPEDFATYYCQQYASFPWTFGGGTKVEIKR
notes: also called humanized antibody of mab110
B2: Hab127.31d (antibody, human IgG1, kappa, V domains shown)
VH: EVQLVQSGAEVKKPGASVKVSCKASGYTFTAYFMNWVRQAPGQGLEWMGRIYHNKGDTFYSQKFKGRVTMTVDKSTSTVYMELSSLRSEDTAVYYCATSYVGDWGQGTTVTVSS
VL: B1 VL with N31D, K42G, I44L, F52S, R53S, R66G, Q89L
notes: also called humanized antibody of mab127
B3: CPX006 (antibody CPX-006 disclosed in patent application WO2018013611) (antibody, V domains shown)
VH: QVQLVQSGAEVEKPGASVKVSCKASGYTFTSYWITWVRQAPGQGLEWMGDIYPGSGNTNYNEKFKTRVTITADKSTSTAYMELSSLRSEDTAVYYCAKEGGLTTEDYALDYWGQGTLVTVSS
VL: EIVLTQSPATLSLSPGERATLSCRASKNVSTSGYSYMHWYQQKPGQAPRLLIYLASNLESGIPPRFSGSGYGTDFTLTINNIESEDAAYYFCQHSRELPFTFGQGTKVEIKR
B4: Hab108.64 (antibody, human IgG1, kappa, V domains shown)
VH: EVTLKQSGPGLVKPTETLTLTCTVSGFSLSSYGIQWVRQPPGKGLEWLGVIWSGGSADYNAAFISRLTISKDTSKSQVVLTMTNMDPVDTATYYCAGQYGSVWGQGTLVTVSS
VL: DIQMTQSPSSLSASVGDRVTITCRASQDIGDRLNWLQQKPGGAIKRLIYATSSLDSGVPKRFSGSGSGTEYTLTISSLQPEDFATYYCLQYAGSWTFGGGTKVEIKR
notes: also called humanized antibody of mab108

These binders were tested against T1, CD73-Myc-His (a fusion protein of the CD73 mature protein extracellular domain and Myc tag and His tag) (human, UniProt P21589 27-547, biotinylated with a kit (sites not given)) (assay: ELISA; biotinylated CD73-myc-his captured on streptavidin plate).
T1 construct: Captured on streptavidin-coated plates in the ELISA; also called biotinylated CD73-myc-his fusion protein; human CD73 protein
T1 sequence: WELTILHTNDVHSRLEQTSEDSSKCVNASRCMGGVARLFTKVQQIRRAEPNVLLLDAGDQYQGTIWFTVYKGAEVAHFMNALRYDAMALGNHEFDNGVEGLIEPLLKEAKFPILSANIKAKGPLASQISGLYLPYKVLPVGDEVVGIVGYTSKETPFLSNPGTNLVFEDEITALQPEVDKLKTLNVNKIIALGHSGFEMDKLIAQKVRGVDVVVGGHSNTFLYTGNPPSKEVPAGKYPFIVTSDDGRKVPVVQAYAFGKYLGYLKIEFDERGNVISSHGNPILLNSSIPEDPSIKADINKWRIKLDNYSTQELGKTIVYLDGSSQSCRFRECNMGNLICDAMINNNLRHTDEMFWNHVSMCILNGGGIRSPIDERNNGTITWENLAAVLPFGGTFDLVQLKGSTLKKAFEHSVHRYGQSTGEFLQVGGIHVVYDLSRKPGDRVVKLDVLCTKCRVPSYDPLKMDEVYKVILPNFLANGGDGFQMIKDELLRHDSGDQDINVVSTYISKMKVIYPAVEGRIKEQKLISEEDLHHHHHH
Method: The binding of anti-CD73 antibodies to human CD73 protein was tested by ELISA assay. The biotinylated CD73 fusion protein was immobilized onto a 96-well microtiter plate by binding to the Streptavidin coated on the microtiter plate. The signal strength after the addition of the antibody was used to determine the binding activity of the antibody to CD73. The specific experimental procedures were as follows:
Streptavidin (Sigma, Cat No. S4762-5MG) was diluted with PBS, pH7.4 (Shanghai BasalMedia, Cat No. B320) buffer to a concentration of […], was added into the 96-well microtiter plate (Corning, Cat No. CLS3590-100EA), 50 μl/well, and incubated in an incubator at 37° C. for 2 hours. The liquid was discarded, 250 μl/well blocking solution (5% skim milk (BD skim milk, Cat No. 232100) diluted in PBS) was added, and incubated in an incubator at 37° C. for 3 hours or at 4° C. overnight (16-18 hours) for blocking. After blocking, the blocking solution was discarded; the plate was washed for 5 times with PBST buffer (PBS containing 0.05% tween-20, pH7.4), 50 μl/well of biotinylated CD73-myc-his fusion protein (Tojin Chemical, Cat No. LK03, biotinylation method was according to the kit's instruction) diluted with sample diluent (PBS containing 1% BSA, pH7.4) was added, and incubated in an incubator at 37° C. 1 hour or at 4° C. overnight. After the incubation was finished, the reaction solution was removed from the microtiter plate, the plate was washed for 5 times with PBST, 50 μl/well of various concentrations of each of the test antibodies (purified hybridoma antibodies or humanized antibodies, diluted with sample diluent) were added, and incubated in an incubator at 37° C. for 1 hour. After the incubation was finished, the plate was washed for 5 times with PBST, 50 µl/well of HRP-labeled goat anti-mouse secondary antibody (Jackson Immuno Research, Cat No. 115-035-003) or goat anti-human secondary antibody (Jackson Immuno Research, Cat No. 109-035-003) diluted with sample diluent was added, and incubated at 37° C. for 1 hour. The plate was washed for 5 times with PBST, 50 μl/well of TMB chromogenic substrate (KPL, Cat No. 52-00-03) was added, incubated at room temperature for 5-10 min, and 50 μl/well of 1M H₂SO₄ was added to stop the reaction.

Binder	EC50 [nM]
B1	0.026
B2	0.026
B3	0.088
B4	0.047

What follows are binders tested against T2, cynomolgus monkey CD73/NT5E protein (His tag), Sino Biological Cat. No. 90192-C08H (cynomolgus monkey, UniProt A0A2K5V5U7 27-547) (assay: SPR Biacore T200; antibody captured on Protein A chip, cynoCD73 in flow; 1:1 Langmuir).
T2 construct: also called cynomolgus monkey CD73 protein; cynoCD73; not shown: His tag
T2 sequence: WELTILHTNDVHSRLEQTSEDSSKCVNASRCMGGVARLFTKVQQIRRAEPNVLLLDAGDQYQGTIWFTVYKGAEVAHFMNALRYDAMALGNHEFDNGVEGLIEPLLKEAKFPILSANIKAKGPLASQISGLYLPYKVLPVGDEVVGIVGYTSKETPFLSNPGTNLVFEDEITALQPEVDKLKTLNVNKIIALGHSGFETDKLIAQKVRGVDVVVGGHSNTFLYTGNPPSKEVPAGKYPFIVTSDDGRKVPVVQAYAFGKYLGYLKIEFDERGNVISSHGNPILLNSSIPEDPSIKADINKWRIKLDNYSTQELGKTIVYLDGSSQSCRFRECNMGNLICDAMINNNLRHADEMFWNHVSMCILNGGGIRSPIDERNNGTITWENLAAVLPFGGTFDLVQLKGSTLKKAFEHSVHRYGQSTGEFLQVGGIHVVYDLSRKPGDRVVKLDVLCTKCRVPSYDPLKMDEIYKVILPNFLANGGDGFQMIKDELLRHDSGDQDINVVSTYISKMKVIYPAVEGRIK
From the text: In this experiment, Biacore instrument was used to determine the affinity of the humanized anti-CD73 antibodies to be tested with human CD73 (huCD73) and monkey CD73 (cynoCD73).
A certain amount of test antibody was affinity-captured with Protein A biosensing chip (Cat. #29127556, GE), and then a certain concentration of human or monkey CD73 antigen was allowed to flow through the surface of the chip. The reaction signals were detected in real time with Biacore instrument (Biacore T200, GE) to generate a binding and dissociation curve. At the end of each cycle, after the dissociation was completed, the biosensor chip was washed and regenerated with Glycine-HCl, pH1.5 (Cat. #BR-1003-54, GE). The running buffer for the assay was 1×HBS-EP buffer solution (Cat. #BR-1001-88, GE).
The data obtained from the experiment was fitted against (1:1) Langmuir model using GE Biacore T200 Evaluation version 3.0 software, and the affinity values were obtained, as shown in Table 12 and Table 13 for details.

Binder	Kd [nM]	koff [s⁻¹]	kon [M⁻¹ s⁻¹]
B1	0.0489	3.45e-05	704000
B2	0.0699	1.86e-05	266000
B4	0.166	4.24e-05	256000
